The values that follow come from paper PMC8548206, “Single-domain antibody screening by isPLA-seq” (Life Science Alliance, 2021).

B1: anti-SQSTM1 sdAb #25 (Flag-tagged, sdAb library) (VHH)
VHH: QVQLVESGGGSVQAGGSLRLSCTASGGSEYSYSTFSLGWFRQAPGQEREAVAAIASMGGLTYYADSVKGRFTISRDNAKNTVTLQMNNLKPEDTAIYYCAAPGDGQEVIFAFVQRSTRAWPVWGQGTQVTVSS
notes: 21-aa CDR3 in place of the CDR3 of cAbBCII10; source: HEK293T, transfected (sdAb library in pcDNA3.1), in fixed cells; not shown: 3x Flag, C-terminal, kept
B2: anti-SQSTM1 sdAb #9 (Flag-tagged, sdAb library) (VHH)
VHH: QVQLVESGGGSVQAGGSLRLSCTASGGSEYSYSTFSLGWFRQAPGQEREAVAAIASMGGLTYYADSVKGRFTISRDNAKNTVTLQMNNLKPEDTAIYYCAADRGCHSTLGSRISFFKGCIIGWGQGTQVTVSS
notes: as for B1
B3: anti-SQSTM1 sdAb #27 (Flag-tagged, sdAb library) (VHH)
VHH: QVQLVESGGGSVQAGGSLRLSCTASGGSEYSYSTFSLGWFRQAPGQEREAVAAIASMGGLTYYADSVKGRFTISRDNAKNTVTLQMNNLKPEDTAIYYCAAIIAELCSGLPCTSFLRTPCPVWGQGTQVTVSS
notes: as for B1
B4: anti-SQSTM1 sdAb #26 (Flag-tagged, sdAb library) (VHH)
VHH: QVQLVESGGGSVQAGGSLRLSCTASGGSEYSYSTFSLGWFRQAPGQEREAVAAIASMGGLTYYADSVKGRFTISRDNAKNTVTLQMNNLKPEDTAIYYCAAFPSRLKCTRGCGCRTFNFPALWGQGTQVTVSS
notes: as for B1
B5: anti-SQSTM1 sdAb #16 (Flag-tagged, sdAb library) (VHH)
VHH: QVQLVESGGGSVQAGGSLRLSCTASGGSEYSYSTFSLGWFRQAPGQEREAVAAIASMGGLTYYADSVKGRFTISRDNAKNTVTLQMNNLKPEDTAIYYCAANMAIRVRWVAMFTCGPIGGVGWGQGTQVTVSS
notes: as for B1
B6: anti-SQSTM1 sdAb #7 (Flag-tagged, sdAb library) (VHH)
VHH: QVQLVESGGGSVQAGGSLRLSCTASGGSEYSYSTFSLGWFRQAPGQEREAVAAIASMGGLTYYADSVKGRFTISRDNAKNTVTLQMNNLKPEDTAIYYCAAAYIAKRPCCDCREVQWGSRTCWGQGTQVTVSS
notes: as for B1
B7: anti-SQSTM1 sdAb #19 (Flag-tagged, sdAb library) (VHH)
VHH: QVQLVESGGGSVQAGGSLRLSCTASGGSEYSYSTFSLGWFRQAPGQEREAVAAIASMGGLTYYADSVKGRFTISRDNAKNTVTLQMNNLKPEDTAIYYCAARQAPFGSRCSISSSPKGRYPSWGQGTQVTVSS
notes: as for B1
B8: anti-SQSTM1 sdAb #4 (Flag-tagged, sdAb library) (VHH)
VHH: QVQLVESGGGSVQAGGSLRLSCTASGGSEYSYSTFSLGWFRQAPGQEREAVAAIASMGGLTYYADSVKGRFTISRDNAKNTVTLQMNNLKPEDTAIYYCAAAYGNDVQSVAFKYVVGRGYQLWGQGTQVTVSS
notes: as for B1
B9: anti-SQSTM1 sdAb #5 (Flag-tagged, sdAb library) (VHH)
VHH: QVQLVESGGGSVQAGGSLRLSCTASGGSEYSYSTFSLGWFRQAPGQEREAVAAIASMGGLTYYADSVKGRFTISRDNAKNTVTLQMNNLKPEDTAIYYCAAYDRVGGGHVLIACYSDDLCMGWGQGTQVTVSS
notes: as for B1
B10: anti-SQSTM1 sdAb #2 (Flag-tagged, sdAb library) (VHH)
VHH: QVQLVESGGGSVQAGGSLRLSCTASGGSEYSYSTFSLGWFRQAPGQEREAVAAIASMGGLTYYADSVKGRFTISRDNAKNTVTLQMNNLKPEDTAIYYCAARAGVCGVVGSFSMYTIGNWVYWGQGTQVTVSS
notes: 21-aa CDR3 in place of the CDR3 of cAbBCII10; also called clone #2; source: HEK293T, transfected (sdAb library in pcDNA3.1), in fixed cells; not shown: 3x Flag, C-terminal, kept
B11: anti-SQSTM1 sdAb #11 (Flag-tagged, sdAb library) (VHH)
VHH: QVQLVESGGGSVQAGGSLRLSCTASGGSEYSYSTFSLGWFRQAPGQEREAVAAIASMGGLTYYADSVKGRFTISRDNAKNTVTLQMNNLKPEDTAIYYCAAARAHFASLCDCQGNRITLLCDWGQGTQVTVSS
notes: as for B1
B12: anti-SQSTM1 sdAb #6 (Flag-tagged, sdAb library) (VHH)
VHH: QVQLVESGGGSVQAGGSLRLSCTASGGSEYSYSTFSLGWFRQAPGQEREAVAAIASMGGLTYYADSVKGRFTISRDNAKNTVTLQMNNLKPEDTAIYYCAALLVIDSSVIARLDGRGRSDRLWGQGTQVTVSS
notes: as for B1
B13: anti-SQSTM1 sdAb #18 (Flag-tagged, sdAb library) (VHH)
VHH: QVQLVESGGGSVQAGGSLRLSCTASGGSEYSYSTFSLGWFRQAPGQEREAVAAIASMGGLTYYADSVKGRFTISRDNAKNTVTLQMNNLKPEDTAIYYCAAGIGYAGDCRAHTIATRRFSVGWGQGTQVTVSS
notes: as for B1
B14: anti-SQSTM1 sdAb #15 (Flag-tagged, sdAb library) (VHH)
VHH: QVQLVESGGGSVQAGGSLRLSCTASGGSEYSYSTFSLGWFRQAPGQEREAVAAIASMGGLTYYADSVKGRFTISRDNAKNTVTLQMNNLKPEDTAIYYCAALRWSWFPSGSTANLSLGIGCTWGQGTQVTVSS
notes: as for B1
B15: anti-SQSTM1 sdAb #24 (Flag-tagged, sdAb library) (VHH)
VHH: QVQLVESGGGSVQAGGSLRLSCTASGGSEYSYSTFSLGWFRQAPGQEREAVAAIASMGGLTYYADSVKGRFTISRDNAKNTVTLQMNNLKPEDTAIYYCAAVRTPVILRCFQSGIFYLVGEVWGQGTQVTVSS
notes: as for B1
B16: anti-SQSTM1 sdAb #3 (Flag-tagged, sdAb library) (VHH)
VHH: QVQLVESGGGSVQAGGSLRLSCTASGGSEYSYSTFSLGWFRQAPGQEREAVAAIASMGGLTYYADSVKGRFTISRDNAKNTVTLQMNNLKPEDTAIYYCAARVRTSPRSAVADGSAYRSESAWGQGTQVTVSS
notes: as for B1
B17: anti-SQSTM1 sdAb #10 (Flag-tagged, sdAb library) (VHH)
VHH: QVQLVESGGGSVQAGGSLRLSCTASGGSEYSYSTFSLGWFRQAPGQEREAVAAIASMGGLTYYADSVKGRFTISRDNAKNTVTLQMNNLKPEDTAIYYCAAVLHVLSWDRCEYDPAHDLRTAWGQGTQVTVSS
notes: as for B1
B18: anti-SQSTM1 sdAb #21 (Flag-tagged, sdAb library) (VHH)
VHH: QVQLVESGGGSVQAGGSLRLSCTASGGSEYSYSTFSLGWFRQAPGQEREAVAAIASMGGLTYYADSVKGRFTISRDNAKNTVTLQMNNLKPEDTAIYYCAADLWAPLMVCSGGLTQMLSNSDWGQGTQVTVSS
notes: as for B1
B19: anti-SQSTM1 sdAb #12 (Flag-tagged, sdAb library) (VHH)
VHH: QVQLVESGGGSVQAGGSLRLSCTASGGSEYSYSTFSLGWFRQAPGQEREAVAAIASMGGLTYYADSVKGRFTISRDNAKNTVTLQMNNLKPEDTAIYYCAADQVRDHSWCNLFRTLRVCVLIWGQGTQVTVSS
notes: as for B1
B20: anti-SQSTM1 sdAb #22 (Flag-tagged, sdAb library) (VHH)
VHH: QVQLVESGGGSVQAGGSLRLSCTASGGSEYSYSTFSLGWFRQAPGQEREAVAAIASMGGLTYYADSVKGRFTISRDNAKNTVTLQMNNLKPEDTAIYYCAAACELDAVRLWPDFVRPAVFSIWGQGTQVTVSS
notes: as for B1
B21: anti-SQSTM1 sdAb #20 (Flag-tagged, sdAb library) (VHH)
VHH: QVQLVESGGGSVQAGGSLRLSCTASGGSEYSYSTFSLGWFRQAPGQEREAVAAIASMGGLTYYADSVKGRFTISRDNAKNTVTLQMNNLKPEDTAIYYCAAPGHGRPWRAATFPVDEGGGSAWGQGTQVTVSS
notes: as for B1
B22: anti-SQSTM1 sdAb #14 (Flag-tagged, sdAb library) (VHH)
VHH: QVQLVESGGGSVQAGGSLRLSCTASGGSEYSYSTFSLGWFRQAPGQEREAVAAIASMGGLTYYADSVKGRFTISRDNAKNTVTLQMNNLKPEDTAIYYCAAGGNTVKVSNIFEVSSSVRVRLWGQGTQVTVSS
notes: as for B1
B23: anti-SQSTM1 sdAb #8 (Flag-tagged, sdAb library) (VHH)
VHH: QVQLVESGGGSVQAGGSLRLSCTASGGSEYSYSTFSLGWFRQAPGQEREAVAAIASMGGLTYYADSVKGRFTISRDNAKNTVTLQMNNLKPEDTAIYYCAAARVFMPCTPSHIIGAMCTLACWGQGTQVTVSS
notes: as for B1
B24: anti-SQSTM1 sdAb #23 (Flag-tagged, sdAb library) (VHH)
VHH: QVQLVESGGGSVQAGGSLRLSCTASGGSEYSYSTFSLGWFRQAPGQEREAVAAIASMGGLTYYADSVKGRFTISRDNAKNTVTLQMNNLKPEDTAIYYCAARRGFVRHTKIKLLDYALTEVRWGQGTQVTVSS
notes: as for B1
B25: anti-SQSTM1 sdAb #17 (Flag-tagged, sdAb library) (VHH)
VHH: QVQLVESGGGSVQAGGSLRLSCTASGGSEYSYSTFSLGWFRQAPGQEREAVAAIASMGGLTYYADSVKGRFTISRDNAKNTVTLQMNNLKPEDTAIYYCAAAVESCDGFRTGRTVPYREVTYWGQGTQVTVSS
notes: as for B1
B26: anti-SQSTM1 sdAb #13 (Flag-tagged, sdAb library) (VHH)
VHH: QVQLVESGGGSVQAGGSLRLSCTASGGSEYSYSTFSLGWFRQAPGQEREAVAAIASMGGLTYYADSVKGRFTISRDNAKNTVTLQMNNLKPEDTAIYYCAAREPFARYLRKESYPLFRMYSFWGQGTQVTVSS
notes: as for B1
B27: purified anti-SQSTM1 sdAb clone #2 (VHH)
VHH: B10 VHH
B28: purified anti-SQSTM1 sdAb clone #1, C-terminal ETA-fused and Flag-tagged (VHH)
VHH: QVQLVESGGGSVQAGGSLRLSCTASGGSEYSYSTFSLGWFRQAPGQEREAVAAIASMGGLTYYADSVKGRFTISRDNAKNTVTLQMNNLKPEDTAIYYCAAEGLVYWTTKKSFGGCLLHDWSWGQGTQVTVSS
notes: also called anti-SQSTM1 sdAb #1; ETA-tagged anti-SQSTM1 sdAb

One experiment concerns the target T1, HA-tagged SQSTM1 (Homo sapiens (Human)., UniProt Q13501).
T1 construct: autophagy receptor SQSTM1, full length; the printed limits 1-440 fit the human protein; also called HA-tagged bait; full length; source: HEK293T, transfected, in fixed cells (screen)
Briefly: proximity ligation; pooled screen (isPLA-seq): Flag-tagged sdAb library co-transfected with HA-tagged SQSTM1 into HEK293T cells, fixed after 48 h, isPLA with anti-HA and anti-Flag antibodies, positive cells sorted by FACS, three rounds, CDR3 sequenced. Conditions: partners not purified.
Turning to B1, the binding result is listed as “binds”.
B2: the binding result is on record as “binds”.
Take B3: the binding result is listed as “binds”.
As for B4, the binding result is listed as “binds”.
B5: the binding result is “binds”.
Same read-out and setting: in the case of B6 it was “binds”.
Regarding B7, the binding result is on record as “binds”.
Turning to B8, the binding result is given as “binds”.
Still for that read-out and setting: in the case of B9 it was “binds”; in that of B10, “binds”.
Same read-out and setting: next, B11: “binds”; B12: “binds”; B13: “binds”.
The same measure, in the same setting: next, B14: “binds”; B15: “binds”.
For the molecule B16, the binding result is given as “binds”.
Still for that read-out and setting: in the case of B17 it was “binds”; in that of B18, “binds”; in that of B19, “binds”.
On the same count and under the same terms, next, B20: “binds”.
Regarding B21, the binding result was “binds”.
Take B22: the binding result is recorded as “binds”.
As for B23, the binding result is on record as “binds”.
On the same count and under the same terms, in the case of B24 it was “binds”; in that of B25, “binds”; in that of B26, “binds”.

The target in the next experiment is T2, Sqstm1 (endogenous, LLC1 cells) (Mus musculus (Mouse)., UniProt Q64337).
T2 construct: mouse Sqstm1, endogenous in Lewis lung carcinoma (LLC1) cells; also called denatured Sqstm1; source: endogenous, LLC1 cells (lysate for Western blot; fixed cells for staining)
Briefly: far-Western, overlay or dot blot. The note with it: one partner purified.
Regarding B27, the binding result is recorded as “binds”.

The target of a further experiment is GST-SQSTM1, 221–440 aa (Homo sapiens (Human)., UniProt Q13501). Description: ITC. Conditions: both partners purified.
One may read the Kd as the equilibrium constant for the complex coming apart. Read a low Kd as higher affinity. Consider B28, for which the Kd was 8.8 ± 1.39 µM.
